Test results taken from patent publication US20200024330A1.

Key:
Experiment in all cases: cell-based or functional assay
[1] = molecular target: HIV-1 MGRM-C-026 envelope glycoprotein (Env) (HIV-1)
[2] = molecular target: HIV-1 JR-CSF Env K305A (HIV-1 JR-CSF) (UniProt P20871)
[3] = molecular target: HIV-1 JR-CSF Env N392Q (HIV-1 (isolate JR-CSF)) (UniProt P20871)
[4] = molecular target: HIV-1 JR-CSF Env L416A (HIV-1 (isolate JR-CSF)) (UniProt P20871)
[5] = molecular target: HIV-1 JR-CSF Env N396A (HIV-1 (isolate JR-CSF)) (UniProt P20871)
[6] = molecular target: HIV-1 JR-CSF Env N302A (HIV-1 JR-CSF) (UniProt P20871)
[7] = molecular target: HIV-1 JR-CSF Env R304A (HIV-1 JR-CSF) (UniProt P20871)
[8] = molecular target: HIV-1 JR-CSF Env G324A (HIV-1 isolate JR-CSF) (UniProt P20871)
[9] = molecular target: HIV-1 JR-CSF Env T413A (HIV-1 (isolate JR-CSF)) (UniProt P20871)
[10] = molecular target: HIV-1 JR-CSF Env Q422A (HIV-1 (isolate JR-CSF)) (UniProt P20871)
[11] = molecular target: HIV-1 JR-CSF Env N355A (HIV-1 isolate JR-CSF) (UniProt P20871)
[12] = molecular target: HIV-1 JR-CSF Env I423A (HIV-1 (isolate JR-CSF)) (UniProt P20871)
[13] = molecular target: HIV-1 JR-CSF Env I424A (HIV-1 (isolate JR-CSF)) (UniProt P20871)
[14] = molecular target: HIV-1 JR-CSF Env R327A (HIV-1 isolate JR-CSF) (UniProt P20871)
[15] = molecular target: HIV-1 JR-CSF Env I323A (HIV-1 isolate JR-CSF) (UniProt P20871)
[16] = molecular target: HIV-1 JR-CSF Env D417A (HIV-1 (isolate JR-CSF)) (UniProt P20871)
[17] = molecular target: Env of the clade B HIV-1 pseudoviruses of the cross-clade 162-pseudovirus panel (n = 31)
[18] = molecular target: HIV-1 JR-CSF Env N332A (HIV-1 isolate JR-CSF) (UniProt P20871)
[19] = molecular target: HIV-1 JR-CSF Env K421A (HIV-1 (isolate JR-CSF)) (UniProt P20871)
[20] = molecular target: Env of the clade AG HIV-1 pseudoviruses of the cross-clade 162-pseudovirus panel (n = 10)
[21] = molecular target: HIV-1 JRFL envelope glycoprotein (Env) (HIV-1)
[22] = molecular target: HIV-1 JR-CSF Env N241A (HIV-1 JR-CSF) (UniProt P20871)
[23] = molecular target: HIV-1 JR-CSF Env I326A (HIV-1 isolate JR-CSF) (UniProt P20871)
[24] = molecular target: HIV-1 JR-CSF Env W395A (HIV-1 (isolate JR-CSF)) (UniProt P20871)
[25] = molecular target: HIV-1 JR-CSF Env V292A (HIV-1 JR-CSF) (UniProt P20871)
[26] = molecular target: HIV-1 JR-CSF Env T202A (HIV-1 JR-CSF) (UniProt P20871)
[27] = molecular target: HIV-1 JR-CSF Env Q337A (HIV-1 isolate JR-CSF) (UniProt P20871)
[28] = molecular target: HIV-1 JR-CSF Env S306A (HIV-1 JR-CSF) (UniProt P20871)
[29] = molecular target: Env of all HIV-1 pseudoviruses of the cross-clade 162-pseudovirus panel (n = 162)
[30] = molecular target: HIV-1 JR-CSF Env S387A (HIV-1 (isolate JR-CSF)) (UniProt P20871)
[31] = molecular target: HIV-1 JR-CSF Env P299A (HIV-1 JR-CSF) (UniProt P20871)
[32] = molecular target: HIV-1 JR-CSF Env I414A (HIV-1 (isolate JR-CSF)) (UniProt P20871)
[33] = molecular target: HIV-1 JR-CSF Env I415A (HIV-1 (isolate JR-CSF)) (UniProt P20871)
[34] = molecular target: HIV-1 JR-CSF Env T319A (HIV-1 isolate JR-CSF) (UniProt P20871)

Binder | Fold IC50 increase relative to wild-type [3] | Fold IC50 increase relative to wild-type [4] | Fold IC50 increase relative to wild-type [5] | Fold IC50 increase relative to wild-type [6] | Fold IC50 increase relative to wild-type [7] | Fold IC50 increase relative to wild-type [9] | Fold IC50 increase relative to wild-type [10] | Fold IC50 increase relative to wild-type [11] | Fold IC50 increase relative to wild-type [12] | Fold IC50 increase relative to wild-type [13] | Fold IC50 increase relative to wild-type [14] | Fold IC50 increase relative to wild-type [15] | Fold IC50 increase relative to wild-type [16] | Median IC50 against viruses neutralized with an IC50 <50 µg/ml [17] | Fold IC50 increase relative to wild-type [18] | Fold IC50 increase relative to wild-type [19] | Median IC50 against viruses neutralized with an IC50 <50 µg/ml [20] | Fold IC50 increase relative to wild-type [22] | Fold IC50 increase relative to wild-type [23] | Fold IC50 increase relative to wild-type [24] | other results
PGT-130 (antibody, V domains shown) VH: QVQLQESGPGLVKPAETLSLTCSVSGESINTGHYYWGWVRQVPGKGLEWIGHIHYTTAVLHNPSLKSRLTIKIYTLRNQITLRLSNVTAADTAVYHCVRSGGDILYYYEWQKPHWFSPWGPGIHVTVSS VL: QSALTQPPSASGSLGQSVTISCNGTSSDIGGWNFVSWYQQFPGRAPRLIIFEVNKRPSGVPGRFSGSKSGNSASLTVSGLQSDDEGQYFCSSLFGRWDVVFGGGTKLTVL | 1.2 fold | 1 fold | 1 fold | 1.1 fold | 2.5 fold | 0.6 fold | 1 fold | 1.3 fold | > 1000 fold | 3.9 fold | 2.4 fold | 0.8 fold | 1 fold | 0.09 µg/mL | 0.6 fold | 2.9 fold | 0.04 µg/mL | 0.6 fold | 1.3 fold | 0.6 fold | IC50 neutralization [1]: 0.0173 µg/mL; Fold IC50 increase relative to wild-type [2]: 6.9 fold; Fold IC50 increase relative to wild-type [8]: > 50 fold; IC50 neutralization [21]: 0.0346 µg/mL; Fold IC50 increase relative to wild-type [25]: 0.9 fold; Fold IC50 increase relative to wild-type [26]: 1.2 fold; Fold IC50 increase relative to wild-type [27]: 1 fold; Fold IC50 increase relative to wild-type [28]: 1.5 fold; Median IC50 against viruses neutralized with an IC50 <50 µg/ml [29]: 0.18 µg/mL; Fold IC50 increase relative to wild-type [30]: 0.7 fold; Fold IC50 increase relative to wild-type [31]: 0.8 fold; Fold IC50 increase relative to wild-type [32]: 0.7 fold; Fold IC50 increase relative to wild-type [33]: 0.6 fold; Fold IC50 increase relative to wild-type [34]: 1.6 fold
PGT-128 (antibody, V domains shown) VH: QPQLQESGPTLVEASETLSLTCAVSGDSTAACNSFWGWVRQPPGKGLEWVGSLSHCASYWNRGWTYHNPSLKSRLTLALDTPKNLVFLKLNSVTAADTATYYCARFGGEVLRYTDWPKPAWVDLWGRGTLVTVSS VL: QSALTQPPSASGSPGQSITISCTGTSNNFVSWYQQHAGKAPKLVIYDVNKRPSGVPDRFSGSKSGNTASLTVSGLQTDDEAVYYCGSLVGNWDVIFGGGTKLTVL | 0.9 fold | 1.1 fold | 0.9 fold | 1.5 fold | 0.7 fold | 1 fold | 0.2 fold | 0.7 fold | 2.6 fold | 1.3 fold | 2.5 fold | 3 fold | 0.5 fold | 0.01 µg/mL | 1.4 fold | 2 fold | 0.67 µg/mL | 0.7 fold | 1.6 fold | 0.8 fold | Fold IC50 increase relative to wild-type [2]: 1.8 fold; Fold IC50 increase relative to wild-type [25]: 2.1 fold; Fold IC50 increase relative to wild-type [26]: 1.1 fold; Fold IC50 increase relative to wild-type [27]: 0.7 fold; Fold IC50 increase relative to wild-type [28]: 1.1 fold; Median IC50 against viruses neutralized with an IC50 <50 µg/ml [29]: 0.07 µg/mL; Fold IC50 increase relative to wild-type [30]: 1.2 fold; Fold IC50 increase relative to wild-type [31]: 1.2 fold; Fold IC50 increase relative to wild-type [32]: 1.4 fold; Fold IC50 increase relative to wild-type [33]: 0.7 fold; Fold IC50 increase relative to wild-type [34]: 0.5 fold
PGT-131 (antibody, V domains shown) VH: QVQLQESGPGLVKPSETLSLTCTVSGDSINTGHHYWGWVRQVPGKGPEWIAHIHYNTAVLHNPALKSRVTISIFTLKNLITLSLSNVTAADTAVYFCVRSGGDILYYIEWQKPHWFYPWGPGILVTVSS VL: QSALTQPPSASGSLGQSLTISCSGTGSDIGSWNFVSWYQQFPGRAPNLIIFEVNRRRSGVPDRFSGSKSGNTASLTVSGLRSEDEAEYFCSSLSGRWDIVFGGGTKVTVL | 0.4 fold | 1 fold | 0.9 fold | 1 fold | 1.5 fold | 0.6 fold | 1.9 fold | 2.3 fold | > 80 fold | 4.8 fold | 19 fold | 38 fold | 1 fold | 0.07 µg/mL | 0.5 fold | 11 fold | 0.18 µg/mL | 0.7 fold | 1.7 fold | 0.5 fold | Fold IC50 increase relative to wild-type [25]: 1.4 fold; Fold IC50 increase relative to wild-type [26]: 2.7 fold; Fold IC50 increase relative to wild-type [27]: 1.3 fold; Fold IC50 increase relative to wild-type [28]: 0.7 fold; Median IC50 against viruses neutralized with an IC50 <50 µg/ml [29]: 0.52 µg/mL; Fold IC50 increase relative to wild-type [30]: 1.1 fold; Fold IC50 increase relative to wild-type [31]: 2 fold; Fold IC50 increase relative to wild-type [32]: 1 fold; Fold IC50 increase relative to wild-type [33]: 0.6 fold; Fold IC50 increase relative to wild-type [34]: 0.9 fold
